Test results published in patent publication US20190314452A1 (YUHAN, published 2019).

Target: human GLP-1 receptor (human, UniProt P43220 24-463)
Assay: cell-based or functional assay

B1: DFD59: GLP1(GEG)-HyFc40 (Fc fusion)
chain: HGEGTFTSDVSSYLEEQAAKEFIAWLVKGGGEKEKEEQEERETKTPECPSHTQPLGVFLFPPKPKDTLMISRTPEVTCVVVDVSQEDPEVQFNWYVDGVEVHNAKTKPREEQFNSTYRVVSVLTVLHQDWLNGKEYKCKVSNKGLPSSIEKTISKAKGQPREPQVYTLPPSQEEMTKNQVSLTCLVKGFYPSDIAVEWESNGQPENNYKTTPPVLDSDGSFFLYSRLTVDKSRWQEGNVFSCSVMHEALHNHYTQKSLSLSLGK
- in vitro GLP-1 activity (intracellular cAMP, EC50 compared): ~2 times higher than DFD69, DFD112 and DFD114

B2: DFD23 (Fc fusion)
chain: HGEGTFTSDVSSYLEGQAAKEFIAWLVKGRGEKEKEEQEERETKTPECPSHTQPLGVFLFPPKPKDTLMISRTPEVTCVVVDVSQEDPEVQFNWYVDGVEVHNAKTKPREEQFNSTYRVVSVLTVLHQDWLNGKEYKCKVSNKGLPSSIEKTISKAKGQPREPQVYTLPPSQEEMTKNQVSLTCLVKGFYPSDIAVEWESNGQPENNYKTTPPVLDSDGSFFLYSRLTVDKSRWQEGNVFSCSVMHEALHNHYTQKSLSLSLGKGGGGSGGGGSGGGGSHPIPDSSPLLQFGGQVRQRYLYTDDAQQTEAHLEIREDGTVGGAADQSPESLLQLKALKPGVIQILGVKTSRFLCQRPDGALYGSLHFDPEACSFREEIRPDGYNVYQSEAHGLPLHLPGNKSPHRDPAPRGPARFLPLPGLPPALPEPPGILAPQPPDVGSSDPLSMVTGLEAVRSPSYAS
- in vitro GLP-1 activity (intracellular cAMP, EC50 compared): 2 to 3 times lower than the fusion proteins containing other GLP-1 mutant sequences
